The labels stand for the following.
B1: Mothers against decapentaplegic homolog (Drosophila melanogaster (Fruit fly)), O62609 (parent)
chain: MGGGSGACPPAHMYGAVAPQDIIVRDMVQMPPPPSNAPTSADACLSIVHSLMCHRQGGESEGFAKRAIESLVKKLKEKRDELDSLITAITTNGAHPSKCVTIQRTLDGRLQVAGRKGFPHVIYARIWRWPDLHKNELKHVKYCAFAFDLKCDSVCVNPYHYERVVSPGIDLSGLSLQSGPSRLVKDEYSAGPLVGSMDIDGNDIGTIQHHPTQMVGPGGYGYPQGPSEYVGDANPMSAMFPTGRTIPKIEPQDGVAGSRGSWMVPPPPRLGQPPQQQQQQPQQQTPQPTQQQQAQSQAAAHSLPVPHGMPGMPGPMNPGPVMAPPPPPQQAQNPQGNGVHHTQANSPTDPASALAMQQQQQQQQQQQQQQQQQQQQSGGVPNGSVNAGGGAAAGGQYYGQPPPVSQMQGAGGGGTSVAPSVHAQQNGYVSQPGSAGSAPVGGGGVFGTAQPTPQQPQQPPTGVQANTGSAGAQAGAGGGAAGTWTGPNTLTYTQSMQPPDPRSLPGGFWNSSLSGDLGSPQQTPPQQQQQQQQPRLLSRQPPPEYWCSIAYFELDTQVGETFKVPSAKPNVIIDGYVDPSGGNRFCLGALSNVHRTEQSERARLHIGKGVQLDLRGEGDVWLRCLSDNSVFVQSYYLDREAGRTPGDAVHKIYPAACIKVFDLRQCHQQMHSLATNAQAAAAAQAAAVAGVANQQMGGGGRSMTAAAGIGVDDLRRLCILRLSFVKGWGPDYPRQSIKETPCWIEVHLHRALQLLDEVLHAMPIDGPRAAA
B2: Protein mothers against dpp (Drosophila melanogaster (Fruit fly)), P42003 (parent)
chain: MDTDDVESNTSSAMSTLGSLFSFTSPAVKKLLGWKQGDEEEKWAEKAVDSLVKKLKKRKGAIEELERALSCPGQPSKCVTIPRSLDGRLQVSHRKGLPHVIYCRVWRWPDLQSHHELKPLELCQYPFSAKQKEVCINPYHYKRVESPVLPPVLVPRHSEFAPGHSMLQFNHVAEPSMPHNVSYSNSGFNSHSLSTSNTSVGSPSSVNSNPNSPYDSLAGTPPPAYSPSEDGNSNNPNDGGQLLDAQMGDVAQVSYSEPAFWASIAYYELNCRVGEVFHCNNNSVIVDGFTNPSNNSDRCCLGQLSNVNRNSTIENTRRHIGKGVHLYYVTGEVYAECLSDSAIFVQSRNCNYHHGFHPSTVCKIPPGCSLKIFNNQEFAQLLSQSVNNGFEAVYELTKMCTIRMSFVKGWGAEYHRQDVTSTPCWIEIHLHGPLQWLDKVLTQMGSPHNAISSVS

These results are taken from IntAct's records for PubMed 9502724.

Variants of B1 are the subject of one assay. To be noted: with mad_drome Mad, P42003.
For the variant C99S, the “effect of a mutation on the interaction” value was “with no effect”.
Same read-out and setting: with G727D the entry was “disrupting interaction strength”.

The next assay covers variants of B2. To be noted: with Med, O62609.
Turning to S452A;S453A;S455A, the “effect of a mutation on the interaction” value is “disrupting interaction strength”.
